Experimental findings from patent US20260070975A1 (SANTA ANA BIO, published 2026) are described below.

Positions count from the first letter of the chain named.

The chains are these.
B1: hRND-2 (antibody, human IgG1, kappa, V domains shown)
VH: QVQLVQSGAEVKKPGASVKVSCKASGYAFTSYWMHWVRQAPGQRLEWMGEIYPTNGGTTYAQKFQGRVTMTVDKSTSTAYMELSRLRSDDTAVYYCTIEDFYAMDYWGQGTTVTVSS
VL: DIVMTQTPLSLSVTPGQPASISCKSSQSLLDSDGKTSLNWLLQKPGQSPQRLIYLVSKLDSGVPDRFSGSGSGTDFTLKISRVEAEDVGVYYCWQGTHFPYTFGQGTKLEIKR
notes: also called humanized RND-2; hRND-H2 / hRND-L3; copies: 2 + 2
B2: hRND-5 (antibody, human IgG1, kappa, V domains shown)
VH: B1 VH with V20L, M48I, A61N, Q62E, Q65K, G66R, V68A, M70L
VL: B1 VL
notes: also called humanized RND-5; hRND-H3b / hRND-L3; copies: 2 + 2
B3: hRND-3 (antibody, human IgG1, kappa, V domains shown)
VH: B1 VH with V20L, M48I, V68A, M70L
VL: B1 VL
notes: also called humanized RND-3; hRND-H3 / hRND-L3; copies: 2 + 2
B4: hRND-4 (antibody, human IgG1, kappa, V domains shown)
VH: B1 VH with A61N, Q62E, Q65K, G66R
VL: B1 VL
notes: also called humanized RND-4; hRND-H2b / hRND-L3; copies: 2 + 2

T1 sequence (O43699 27-453): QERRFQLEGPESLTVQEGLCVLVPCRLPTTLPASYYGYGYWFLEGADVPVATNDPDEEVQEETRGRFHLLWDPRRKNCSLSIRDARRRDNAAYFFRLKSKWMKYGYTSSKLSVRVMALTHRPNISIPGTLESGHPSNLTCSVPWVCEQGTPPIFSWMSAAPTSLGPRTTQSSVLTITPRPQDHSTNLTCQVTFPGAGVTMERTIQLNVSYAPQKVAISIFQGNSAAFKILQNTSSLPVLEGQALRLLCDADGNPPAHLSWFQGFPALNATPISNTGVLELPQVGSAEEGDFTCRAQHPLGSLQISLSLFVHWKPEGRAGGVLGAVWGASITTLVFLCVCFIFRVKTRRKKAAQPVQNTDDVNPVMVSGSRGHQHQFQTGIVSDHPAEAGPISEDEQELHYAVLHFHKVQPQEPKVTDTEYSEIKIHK

This assay addresses T1, Human siglec-6 expressed on the cell surface (HMC1.2 cells; HEK293 cells expressing human siglec-6) (human, UniProt O43699 27-453).
T1 construct: whole, on cells; also called cell surface expressed siglec-6; CD327
As to the kind of experiment: flow cytometry on HMC1.2 cells. How it is done: Target binding of siglec-6 antibodies to siglec-6-expressing cells was assessed by flow cytometry. Cultured HMC1.2 cells were resuspended in FACS Blocking Buffer (PBS+10% normal human serum) for 30 minutes. Following washing, cells were incubated with siglec-6 antibodies in FACS Buffer (PBS+0.5% bovine serum albumin+0.09% sodium azide) and incubated at 4° C. for 30 minutes, washed and incubated with PE-labeled anti-human or anti-mouse secondary antibodies. Cells were incubated at 4° C. for 30 minutes in the dark. Following washing, cytofluorimetric analysis was conducted using a BD FACS Symphony A3 (BD Biosciences). Cells were sorted by scatter properties and separated for single cell analysis using side scatter width vs side scatter area. Antibody binding to cells was quantitated by measuring fluorescent emissions of excitation wavelength of 561 nm using a 586/15 nm filter. All tested siglec-6 antibodies were capable of binding to cells expressing siglec-6.
Background: A flow cytometer gives signals particle by particle.
As to B1, the MFI amounted to 3130 MFI and the “Percent Positive for Siglec-6 on HMC1.2 cells” value (“Percent Positive” below) is 99.9%.

With B2, the MFI was 1940 MFI and the “Percent Positive” value came out at 99.9%.

With B3, the MFI is 3700 MFI and the “Percent Positive” value amounted to 99.9%.

Turning to B4, the MFI was determined as 3200 MFI and the “Percent Positive” value is 100%.
